For 15 sequences, protein stability index results are on record in the supplement of paper PMC10724198.

± gives the standard deviation of the averaged measurements.

Series [1] concerns Saccharomyces cerevisiae. As to the kind of experiment: protein stability index of tFT-peptide fusion (C-terminal peptide) (PSI (0-1 scale)); higher = more stable (slower turnover). To be noted: genetic background: wild type; temperature: 30 C.
In series [2] the test system is Saccharomyces cerevisiae. Described as above. How it is done: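 MPS profiling in S. cerevisiae of the tFT-X12 degron library: putative degron peptides plus stable controls, 12 aa, fused to the C-terminus of a sfGFP-mCherry timer. Cells are FACS-sorted into 8 mCherry/sfGFP bins and deep-sequenced. PSI runs from 0 (unstable) to 1 (stable). Backgrounds are wild type, das1Δ and doa10Δ at 30 °C, and wild type, das1Δ, cdc34-1 and cdc53-1 at 37 °C; 2-3 technical replicates each.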

[3] abbreviates: genetic background: cdc34-1, temperature: 37 C.
Setting [4] is: genetic background: cdc53-1, temperature: 37 C.
Setting [5] is: genetic background: das1 deletion, temperature: 30 C.
Where [6] appears, read: genetic background: das1 deletion, temperature: 37 C.
[7] abbreviates: genetic background: doa10 deletion, temperature: 30 C.
[8] abbreviates: genetic background: wild type, temperature: 30 C.
[9] abbreviates: genetic background: wild type, temperature: 37 C.
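Note: PSI is a weighted mean of sequencing reads over stability bins, variants kept only with over 10 reads, mCherry proximal and sfGFP distal, peptide attached via GGGS linker.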

Regarding FFLPIFFSIFLS, the protein stability index in series [1] came to 0.156 ± 0.013; in series [2] (setting [3]), 0.068 ± 0.038; in series [2] (setting [4]), 0.0346 ± 0.0085; in series [2] (setting [5]), 0.152 ± 0.017; in series [2] (setting [6]), 0.198 ± 0.0023; in series [2] (setting [7]) it was 0.281 ± 0.0056. The protein stability index in series [2] (setting [8]) was determined as 0.108 ± 0.022; in series [2] (setting [9]), 0.155 ± 0.0049.

For the sequence FFLSAFFFFFLF, the protein stability index in series [1] was determined as 0.361 ± 0.0086; in series [2] (setting [3]), 0.342 ± 0.04; in series [2] (setting [4]) it was 0.346 ± 0.017; in series [2] (setting [5]), 0.359 ± 0.015; in series [2] (setting [6]), 0.4409 ± 0.0039; in series [2] (setting [7]) it was 0.3669 ± 0.002. Also, the protein stability index in series [2] (setting [8]) was found to be 0.291 ± 0.027; in series [2] (setting [9]), 0.36913 ± 0.00026.

For the sequence FFMLLYSFFTFD, the protein stability index was determined as 0.418 ± 0.014 in series [1]; 0.434 ± 0.0044 in series [2] (setting [3]); 0.50402 ± 2.8e-06 in series [2] (setting [4]); 0.38 ± 0.033 in series [2] (setting [5]); 0.51926 ± 0.00029 in series [2] (setting [6]); 0.348 ± 0.004 in series [2] (setting [7]). Besides, the protein stability index in series [2] (setting [8]) was 0.375 ± 0.035; in series [2] (setting [9]) it was 0.506 ± 0.024.

In the case of FFSSSASVLFII, the protein stability index in series [1] was found to be 0.299 ± 0.016; in series [2] (setting [3]) it was 0.686 ± 0.11; in series [2] (setting [4]) it was 0.7852 ± 0.0067; in series [2] (setting [5]) it was 0.663 ± 0.029; in series [2] (setting [6]), 0.79 ± 0.0075; in series [2] (setting [7]), 0.19 ± 0.015. Besides, the protein stability index in series [2] (setting [8]) stood at 0.198 ± 0.016; in series [2] (setting [9]) it was 0.394 ± 0.039.

On to FFTLLLFLFFSV, for which the protein stability index in series [1] stood at 0.321 ± 0.0086; in series [2] (setting [3]) it was 0.352 ± 0.035; in series [2] (setting [4]), 0.278 ± 0.032; in series [2] (setting [5]), 0.3 ± 0.026; in series [2] (setting [6]), 0.435 ± 0.039; in series [2] (setting [7]) it was 0.395 ± 0.0048. Further, the protein stability index in series [2] (setting [8]) is 0.293 ± 0.03; in series [2] (setting [9]), 0.411 ± 0.022.

Turning to FFVACCSFVFLL, the protein stability index came out at 0.335 ± 0.066 in series [1]; 0.369 ± 0.024 in series [2] (setting [3]); 0.436 ± 0.03 in series [2] (setting [4]); 0.35 ± 0.022 in series [2] (setting [5]); 0.478 ± 0.0052 in series [2] (setting [6]); 0.197 ± 0.007 in series [2] (setting [7]). Further, the values for the protein stability index in series [2] (setting [8]) and in series [2] (setting [9]) were 0.203 ± 0.022 and 0.316 ± 0.019, respectively.

Regarding FGFGSSRFLLCL, the protein stability index was 0.471 ± 0.029 in series [1]; 0.677 ± 0.015 in series [2] (setting [3]); 0.731 ± 0.0042 in series [2] (setting [4]); 0.609 ± 0.027 in series [2] (setting [5]); 0.743 ± 0.0099 in series [2] (setting [6]); 0.3357 ± 0.0026 in series [2] (setting [7]). In addition, the protein stability index in series [2] (setting [8]) worked out at 0.384 ± 0.028; in series [2] (setting [9]), 0.604 ± 0.026.

On to FGFLVVLFDCVR, for which the protein stability index in series [1] was 0.436 ± 0.07; in series [2] (setting [3]) it was 0.336 ± 0.0095; in series [2] (setting [4]), 0.437 ± 0.015; in series [2] (setting [5]) it was 0.327 ± 0.034; in series [2] (setting [6]), 0.474 ± 0.017; in series [2] (setting [7]), 0.2652 ± 0.00067. Also, the protein stability index was 0.291 ± 0.028 in series [2] (setting [8]) and 0.464 ± 0.0057 in series [2] (setting [9]).

In the case of FGVFLLWCVLLL, the protein stability index in series [1] is 0.274 ± 0.077; in series [2] (setting [3]), 0.226 ± 0.0076; in series [2] (setting [4]), 0.297 ± 0.017; in series [2] (setting [5]), 0.213 ± 0.023; in series [2] (setting [6]), 0.339 ± 0.013; in series [2] (setting [7]) it was 0.217 ± 0.01. The results for the protein stability index in series [2] (setting [8]) and in series [2] (setting [9]) were 0.191 ± 0.013 and 0.352 ± 0.075, respectively.

For FIAVSLSVFLVF, the protein stability index in series [1] is 0.234 ± 0.011; in series [2] (setting [3]) it was 0.159 ± 0.015; in series [2] (setting [4]) it was 0.286 ± 0.0034; in series [2] (setting [5]), 0.189 ± 0.022; in series [2] (setting [6]) it was 0.322 ± 0.012; in series [2] (setting [7]), 0.1758 ± 0.00094. In addition, the figures for the protein stability index in series [2] (setting [8]) and in series [2] (setting [9]) were 0.181 ± 0.024 and 0.287 ± 0.003, respectively.

With FIFLFVALFCVF, the protein stability index was determined as 0.353 ± 0.067 in series [1]; 0.31 ± 0.039 in series [2] (setting [3]); 0.343 ± 0.0083 in series [2] (setting [4]); 0.327 ± 0.017 in series [2] (setting [5]); 0.404 ± 0.014 in series [2] (setting [6]); 0.328 ± 0.012 in series [2] (setting [7]). The protein stability index in series [2] (setting [8]) is 0.29 ± 0.021; in series [2] (setting [9]) it was 0.365 ± 0.036.

As for FILIFLGILSCC, the protein stability index in series [1] turned out to be 0.378 ± 0.04; in series [2] (setting [3]), 0.409 ± 0.0092; in series [2] (setting [4]), 0.453 ± 0.058; in series [2] (setting [5]), 0.356 ± 0.026; in series [2] (setting [6]) it was 0.463 ± 0.014; in series [2] (setting [7]), 0.312 ± 0.0014. For the same sequence, the protein stability index in series [2] (setting [8]) was found to be 0.325 ± 0.025; in series [2] (setting [9]) it was 0.4149 ± 0.0031.

Turning to FIYSVFFYSYWF, the protein stability index in series [1] amounted to 0.363 ± 0.016; in series [2] (setting [3]), 0.36 ± 0.043; in series [2] (setting [4]) it was 0.467 ± 0.033; in series [2] (setting [5]) it was 0.287 ± 0.015; in series [2] (setting [6]), 0.467 ± 0.0063; in series [2] (setting [7]), 0.318 ± 0.025. The protein stability index came out at 0.272 ± 0.013 in series [2] (setting [8]) and 0.429 ± 0.017 in series [2] (setting [9]).

For FLFLESFLFFYL, the protein stability index in series [1] was 0.499 ± 0.02; in series [2] (setting [3]) it was 0.5 ± 0.052; in series [2] (setting [4]) it was 0.4797 ± 0.0046; in series [2] (setting [5]), 0.418 ± 0.03; in series [2] (setting [6]), 0.5698 ± 0.0026; in series [2] (setting [7]) it was 0.502 ± 0.0079. Also, the protein stability index was determined as 0.411 ± 0.017 in series [2] (setting [8]) and 0.525 ± 0.055 in series [2] (setting [9]).

As to FLFVFLGVYGHV, the protein stability index in series [1] was 0.404 ± 0.012; in series [2] (setting [3]) it was 0.281 ± 0.02; in series [2] (setting [4]) it was 0.409 ± 0.018; in series [2] (setting [5]), 0.271 ± 0.044; in series [2] (setting [6]), 0.494 ± 0.027; in series [2] (setting [7]), 0.27 ± 0.0047. Besides, the protein stability index in series [2] (setting [8]) is 0.288 ± 0.029; in series [2] (setting [9]), 0.46 ± 0.0054.
